Molecular target: Glutathione peroxidase 4 (GPX4), endogenous in OS-RC-2 cells (Homo sapiens, OS-RC-2 cells, UniProt P36969)
Test: pull-down

B1: 4C-R10 (nanobody 4C fused at its C-terminus through an SGSGSG linker to the arginine-rich R10 cell-penetrating peptide) (VHH)
VHH: EVQLEESGGGSVQAGGSLRLSCAAPGDTSSRYYMGWFRQAPGKEREGVAGFSTGLGRTTYADSVKGRFTISQDNAKNTIYLQMNSLKVEDTAMYYCATGRAWAAGSPMYGPFDSRRYNYWGQGTQVTVSS
B1: binds.

— article PMC11575642 (Chemical Science, 2024)
